Test results reported in the nanobody polyreactivity screen of Harvey et al. (2022).

Assay: yeast display, Sf9 membrane polyspecificity reagent, FACS + sequencing; frameworks hold sequencing errors
How it was run: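 In a synthetic yeast display library (Saccharomyces cerevisiae BJ5465), nanobody expression was induced with galactose for 36–48 hours. FACS gates were set low and high (top ~1%) using anti-HA fluorescence for expression and streptavidin fluorescence for binding of the Sf9 membrane reagent. Each polyreactivity label is drawn from the gate of origin.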

Row | Sequence | polyreactivity (PSR sort gate)
1 | QVQLEESGGGLVQAGGSLPLICAASGRIFATYAMGWYRQAPGKARELVAAISGRGSSTYYADSVKVRFTISRDNAKNTVYLQMNSLKPEDTAVSYCAAVVRHSFGYDSWGQCTQVTVSS | high polyreactivity
2 | QVQLVESGGGLVQAGGSLRLSCAASGSIFWNNDMGWYRPAPGKERELVAGISGGSTNYADSVKGRFTISRDNAKNTVYLQMNSLKPEDTAVYYCATERQWESRLEAYDYWGQGTQVTVSS | low polyreactivity
3 | QVQLVESGGGLVQAGGSLRLSCAASGRIFGAYAMGWYRQAPWKERELVAAITSRGGNTYYADSVKGRFTISRDNAKNTVYLQMNSLKPEDTAVYYCAARHDKRRQYYVGQSAFDYWGQGTQVTVSS | low polyreactivity
4 | QVQLVESGGGLVQAGGSLRLSCAAAGSIFGDYVMGWYRQAPGKERELVPANTSATSTYYADSVKGRFTISRDNAKNTVYLQMNSLKPEDTAVYYCNADATYPLWPNIWYDYDYWGQGTQVTVSS | low polyreactivity
5 | QVQLVESGGGLVQAGGSLRLSCAASGITFYYNAMGWYRQAPGKERELVAAISDGSSTNYADSVKGRFTISRDTAKNTVYLQMNSLKPEDTAVYYCNADLVLFPLTWPYYYWGQGTQVTVSS | low polyreactivity
6 | QVQLVESGGGLVHAGGSLRLSCAASGSIFPDNTMGWYRQAPGKERELVAAIDGRGGTTYYADSVKGRFTISRDNAKNTVYLQMNSLKPEDTAVYYCARDIGHSARYDYWGQGTQVTVSS | low polyreactivity
7 | QVQLVESGGGLVQAGGSLRLSCAASGRIFSKYAMGWYRQAPGKERELVAAISNGGSTNYADTVKGRFTISRDNAKNTVYLQMNSLKPEDTAVYYCAKQDRVLYGGYDSWGQGTQVTVSS | low polyreactivity
8 | QVQLVETGGGLVQAGGSLRLSCAASGRIFGRYAMGWSRQAPGKERELVASISRGGSTNYADSVKGRFTISRDNAKNTVYLQMNSLKPEDTAVYYCAKSGGVGGADRVGSWGQGTQVTVSS | low polyreactivity
9 | QVQLVESGGGLVQAGGSLRLSCAASGLTFYLYAMGWYRQAPGKERELVAAITSGGSTYYADSVKGRFTISRDNAKNTVYLQMNSLKPEDTAVYYCNKLTYGRVWDHHYDYWGQVTQVTVSS | low polyreactivity
10 | QVQLVESGGGLVQAGGSLRLIFAASGSIFPDYAMGWYITAPGKERELVAAISRSGGRTSYADSVKGRFTISRDNAKNTVFLQMNSLKPEDTAVYYCNVASRQGSTYDYWGQGTQVTVSS | high polyreactivity
11 | QVQLVESGGGLVQAGGSLRLSCAASGRIFDDYAMGRYRQAPGKERELVAAISWSGGSTYYADSVKGRFTISRDNAKNTVYLQMNSQKPVDTAVYYCSAPYHSYKRIGYDYWGQGTQVSVSS | low polyreactivity
12 | QVQLVESGGGLVQAGGSLRLSFAASGSIFYYYVMGWYRQAPGKERELVASIRAGGDNTYYADSVKGRFTISRDSAKNTVYLQMNRLKPEDSEVYYCAKSRGRRRLYPHRYGHDYWGQGTQVTVSS | low polyreactivity
13 | QVQLVESGGGLVQAGGSHRLSCASYGSIFRCYAKGWYRQAPGKERELVAGITRSGGSTYYADSVKGRFTISRDNAKNTVYLQLNRLKPEDTAVYYCNADLYRKRAWVRRDGSWGHGTQVTVSS | low polyreactivity
14 | QVQLVESGGGLVHAGGSLRLSCAGSGSTFRPYAMGWYRQAPGKERELVAAIRKIGGRTYYADSVKGRFTISRDNAKNTVYLQMNSLKPEDTAVYNCNKRIGGGVHAYNYWGQGTQVSVSS | low polyreactivity
15 | QVQLVESGGGLVQAGGSLRLSCAASGLIFTDYDMGWYRQAPGKERELVAAISTSGGSTYYADSVKGRFTISRDNAKNPVYLQMNSLKPAETAVYYCAAEYVYPYWNGFDYWGQGTQVTVSS | low polyreactivity
16 | QVQLVDSGGGLVQAGGSLRLSCAASGRIFYPYAMGWYREATGKERELVAAMTRRTASTYYADSVKGRFTISRDNAKNTVYLQMNSLKPQDTAVYYCAAVSYLKRPYYAGYYYWGQGTQVTVSS | high polyreactivity
17 | QVQLVESGGGLVQAGGSLRLSCAASGRIFRRYTMGWYRQAPGKERELVAAITWNGGRTYYADSVKGRFTISRDNAKNTVYLQMNSLKPEDTAVYYCAARRQGGYGYDYWGQGTQVTVSS | high polyreactivity
18 | QVQLVESGGGLVQAGGSLRLSCAASGIIFDRYAMGWYRQAPGKERELVAAITYGGGSTYYADSVKGRFTISRDNAKNTVYLQMNSLKPEDTAVYYCAAVSTWFYQYYYWGQGTQVTVSS | high polyreactivity
19 | QVQLVESGGGLVQAGGSLRLSCAASGSIFGYNTMGWYIQAPGKERELVATITRGGSTHYADSVKGRFTISRDNAKNTVYLQMNSLKPEDTAVYYCAATRLSYVRLYRFSQQYYYWGQGTQVTVSS | high polyreactivity
20 | QVQLVESGGGLVQAGGSLRLSCDASGITFYRYAMGWYRQAPGKERELVAAITSGDTTYYADSVKGRFTISRDNAKNTVYLQMNSLKPEDTADYYCAAVAGYRVVRTRELGYWGQGTQVTVSS | high polyreactivity
21 | QVHLVESGGGLVQAGGSLRLSCASSGSTFGYYAMGWYRQAPGKERELVAAITGRGGSTYYADSVKGRFTISRDNAKNTVYLQLISLKQEDTAVYYCAVGKYRLYYSGAYGYWGQGTQVTVSS | high polyreactivity
22 | QVQLVESGGGLVQAGGSLRLSCAASGLTFLVYAMGWYRQAPGKERELVAAITSIGDSTFYADSVKGRFTISRDNAKNTVYLQMNSLKPEDSAVYYCNADGPAGDIKFTLMDYDYWGQGTQVTVSS | low polyreactivity

Row | Sequence | polyreactivity (PSR sort gate)
23 | QVPLVESGGGLVQAGGSLRLSCAASGRIFYNYAMGWYRQAPGKERELVAAISGSGGSTYYADSVKGRFTISRDNAKNTVYLQMNSLKPEDSSVYYCSTSGPQYYSRNFDYWGQGTQVTVSS | low polyreactivity
24 | QVQLVESGGGLVQAGGSLRLSCAASGIIISYYAMGWYRQAPGTERELVAAINWNGDSTHYADSVKGRFTISRDNAKNTVYLKMNSLKPEDTAVYYCAAGYTPDTRCHYGTHDMDYWGQGTQVTVSS | low polyreactivity
25 | QVQLVESRGGLVQAGGSLRLSCASSGSIFFSNAMGWYRQAPGKERELVAAISKSGGSTYYADSVKGRFTISRDNAKNTVYLQMNSLKPEDTAVYYCAAERTFLYWAYDYWGQGTQVTVSS | high polyreactivity
26 | QVQLVESGGGLVQAGGSLRLSCAASGLSLDVNVMGWYRPAPGKERELVAGIRSDSRTNYADSVKGRFTISRDNAKNTVYLQMNRLKPEDTAVYYCATRDKYISYYTYPYYSWGQGTQVTVSS | low polyreactivity
27 | QVQLVESGGGLVQAGGSLRLSCAASGRTFYRNDMVWYRQSPGKERELVARITSGGSTNYADSVKGRFTISRDNAKNTVYLQMNSLKPEDTGVYYCAAVSRYYPYGYWGQGTQVTVSS | high polyreactivity
28 | QVQLVESGGGLVQAGGSLRLSCPASGRIIGGNAMGWYRQAPGKEREFVAAIRASGGSTHYADSVKGRFTISRDNAKNTVYLQMNSLKPEDTAVYDCNALSRNTHLYDYWGQGTQVTVSS | high polyreactivity
29 | QVQLVESGGGLVQAGGSLRLSCAASGIIFYENAMGWYRQAPGKERELVADITQSGGSTYYADSVKGRFTISRDNAKNTVYLQMNSLKPEDTAVYYCARDGDLWYYKGYGTLFDYWGQGTQVTVSS | low polyreactivity
30 | QVQRVESGGGLVQAGGSLRLSCAASGSIFTSNVRGWYRQAPGKERELDAAITITGTTNYADSVKGRFTISRDNAKNTVYFQMNRLKPEDTAVYYCAKDPVELSPADWRADYDYWGQGSQVTVSS | low polyreactivity
31 | QVQLVESGGGLVQAGGSLRLSCAASGIIFYLYVMGWYRQAPGKERELVAVISYSGDDTYYADSVKVRFTISRDNAKNTVYLQMNSLKPEDTAVYYCAADSIGYGFDYWGQGTQVTVSS | low polyreactivity
32 | QVQLVESGGGLVHAGGSLRLSCAASGSTFWYNAMGWYRQAPGKERELVAAITWSGSRTYYSDSVKGRFTISRDNAKNTVYLQMNSLKPEDTAVYYCNRTRSFTRYDVFYGTIPAFDYWGQGTQVTVSS | high polyreactivity
33 | QVQLVESGGGLVQAGGSLRLSCAASGYILQINAMGWYRQAPGKERELVSAISISGGNTYYADSVKGRFTISRDNAKNNVYLQMNSLKPEDTAVYYCAAYRYYSYLVRYGLLLAYYYWGQGTQVTVSS | low polyreactivity
34 | QVQLVESGGGLVQAGGSLRLSCAASGSIFYVYAMGWYRQAPGNERELVAVIRRGGSTKYADSVKGRFTISRDNAKNTVYLQMNSLKPEDTAVYYCNVVGYAYGWQYDYWGQGTQVTVSS | high polyreactivity
35 | QVQLVESGGGLVQAGGSLRLSCAASGRTFRGYVMGWYRQAPGKERELVAAISKSGGSTYYADSVKGRFTISRDIAKNTVYLQMNSLKPEDTAVYYCNALPRTQYDYWGQGTQVTVSS | low polyreactivity
36 | QVQLVESGGGLLQAGGSLPLSCAASGSIFPGYAMGWYRQAPGKERELVATITWSGGSTYYADSVKGRFTISRDNAKNTVYLQMNSLNPADTAVYYCNADSNWYYQWNYYGLYDYWGQATQVTVSS | low polyreactivity
37 | QVQLVESGGGLVQAGGSLRLTCAASGSTFDLNAMGWYRQSPGKERELVARISSVGSTNYADSVKGRFTISRDNAKNSVYLQMNSLKPEDTAVYYCNAGFWDLYDYWGQGTQVTVSS | low polyreactivity
38 | QVQLVESGGGLVQAGGSLRLSCAASGRISAYNAMGWYRQAPGKERELVAGISTRTGSTYYADSVKGRFTISRDNAKNTVYLQMNSLKPEDTAVYYCAAYFWGVYFFGMDYWGQGTQVTVSS | low polyreactivity
39 | QVQLVESGGGLVQAGGSLRLSCAASGSIFTYNAMGWYREAPGKERELVAAIRLSGGSTYYADSVKGRFTISRDNAKNTVYLQMNSLKPEDTAVYYCAAESAAASAVYSVEYDYWGQGTQVTVSS | low polyreactivity
40 | QVQLVESGGGLVQAGGSLRLSCAASGRTFNTYAMGWYRQAPGKERELVAAISSGGRTYYADSVKGRFTISRDNAKNTVYLQMNSLKPEDTAVYYCAAKPFQYRTVYEYWGQGTQVTVSS | high polyreactivity
41 | QVQLVESGGGLVHAGGSLRLSCAASGFIFKRYPMGWNRPAHGKERELVAVITRSGGSTYYADSVKGRFTISRDNAKNTVYLQMNSLKPEDTAVYYCAAQGLLKFYWGQGTQVTVSS | high polyreactivity
42 | QVQLVESGGGLVQAGGSLRLSCAASGRILGYYAMGWYRQAPGKERELVAAITYSGGSTYYADSVKGRFTISRDNAKNTVYLQMNSLKPEDTAVYYCAADKWLLGLYGSTWNDYWGQGTQVTVSS | low polyreactivity
43 | QVQLVESGGGLVQAGGSLRLSCAASGIIFLNYDIGWYRPAPGKERELVAAITTSGASTYYADSVKGRFTISRDNAKNTVYLQMNSLKREDTAVYYCAAVFRHARYRYDYWGQGTQVTVSS | high polyreactivity
